Assay results published in patent publication US20170306032A1 (RESEARCH CORPORATION TECHNOLOGIES, published 2017).
Changes are numbered by the printed parent chain.

B1: E10 modified CH2 domain (first generation loop 2 clone, parental clone of the affinity maturation) (designed binder)
chain: GPSVFLFPPKPKDTLMISRTPEVTCVVVDVSHEDPEVKFNWYVDGAEVHHAQTKPRQYDPLYGYRVVSVLTVLHQDWLNGKEYKCKVSNKALPAPIEKTISKAK
notes: purified protein elsewhere; also called E10par
B2: D2 modified CH2 domain (affinity matured, loop 1 YEAAAL, loop 2 of E10) (designed binder)
chain: B1 chain with V30Y, S31E, H32A, E33A, D34A, P35L
notes: Expressed in Shuffle cells, purified on HisTrap
B3: H3 (first generation loop 2 clone, loop 2 AYYALGG) (designed binder)
chain: B1 chain with Q57A, D59Y, P60A, Y62G
notes: From library #15 (Glu293 to Thr299 randomised); A9 is kept apart as m12; also called H3par
B4: G7 modified CH2 domain (affinity matured, loop 1 PHLGVD, loop 2 of E10) (designed binder)
chain: B1 chain with V30P, S31H, H32L, E33G, D34V, P35D
B5: B11 modified CH2 domain (affinity matured, loop 1 YRADYL, loop 2 of E10) (designed binder)
chain: B1 chain with V30Y, S31R, H32A, E33D, D34Y, P35L
B6: H6 modified CH2 domain (first generation loop 2 clone) (designed binder)
chain: B1 chain with Q57R, Y58V, Y62G
notes: purified on a Nickel column from E. coli periplasm for protein ELISA and SPR
B7: B11 modified CH2 domain SEQ ID NO: 91 (C terminal cysteine) conjugated with Biotin-dPEG11 (designed binder)
chain: GPSVFLFPPKPKDTLMISRTPEVTCVVVDYRADYLDVKFNWYVNGAEVHHAQTKPRQYDPLYGYRVVSVLTVTHQDWLNGKEYTCKVSNKALPAPIQKTISKDC
modifications: conjugated with Biotin-dPEG11-MAL after reduction with DTT; the residue that carries it is not stated (chain has a C terminal cysteine)
notes: also called B11-dPEG-biotin
B8: B11 modified CH2 domain SEQ ID NO: 89 (C terminal cysteine and N terminal hinge sequence) conjugated with Biotin-dPEG11 (designed binder)
chain: GSCDKTHTAPEKKGGPSVFLFPPKPKDTLMISRTPEVTCVVVDYRADYLDVKFNWYVNGAEVHHAQTKPRQYDPLYGYRVVSVLTVTHQDWLNGKEYTCKVSNKALPAPIQKTISKDC
modifications: conjugated with Biotin-dPEG11-MAL after reduction with DTT; the residue that carries it is not stated (chain has a C terminal cysteine)
notes: also called B11-dPEG-biotin
B9: B11 modified CH2 domain SEQ ID NO: 90 (N terminal hinge sequence) conjugated with Biotin-dPEG11 (designed binder)
chain: B8 chain with C118K
modifications: conjugated with Biotin-dPEG11-MAL after reduction with DTT; the residue that carries it is not stated
notes: also called B11-dPEG-biotin
B10: wild type CH2D (wild type human IgG CH2 domain) (other)
chain: APELLGGPSVFLFPPKPKDTLMISRTPEVTCVVVDVSHEDPEVKFNWYVDGVEVHNAKTKPREEQYNSTYRVVSVLTVLHQDWLNGKEYKCKVSNKALPAPIEKTISKAK
notes: also called CH2wt

Tests used:
FcRn = target: T1, FcRn; assay: SPR
T1 construct: also called neonatal receptor FcRn
T1 sequence (P55899 24-297, chain 1 of 2): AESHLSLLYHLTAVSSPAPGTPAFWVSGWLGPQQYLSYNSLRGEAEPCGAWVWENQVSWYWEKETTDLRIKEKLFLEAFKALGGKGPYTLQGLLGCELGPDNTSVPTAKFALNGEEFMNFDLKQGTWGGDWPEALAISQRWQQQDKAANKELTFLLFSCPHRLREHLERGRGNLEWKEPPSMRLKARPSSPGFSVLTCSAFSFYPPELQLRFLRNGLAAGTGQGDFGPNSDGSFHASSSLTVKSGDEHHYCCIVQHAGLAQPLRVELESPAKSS
T1 sequence (P61769 21-119, chain 2 of 2, further chain): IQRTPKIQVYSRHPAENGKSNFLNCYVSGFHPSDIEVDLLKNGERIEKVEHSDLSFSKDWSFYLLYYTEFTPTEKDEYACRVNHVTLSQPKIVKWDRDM

[1] = target: T2, human EphA2 receptor expressed on cells (HEK293-EphA2, CHO-EphA2, PC-3) (human, UniProt P29317 24-976); assay: phage ELISA on fixed HEK293 cells with doxycycline-induced EphA2 (NO DOX, 100, 50, 25 ng/ml), anti-M13-HRP
T2 construct: whole, on cells; also called EphA2 transfected cells; HEK293-EphA2 overexpressing cells
T2 sequence (P29317 24-976): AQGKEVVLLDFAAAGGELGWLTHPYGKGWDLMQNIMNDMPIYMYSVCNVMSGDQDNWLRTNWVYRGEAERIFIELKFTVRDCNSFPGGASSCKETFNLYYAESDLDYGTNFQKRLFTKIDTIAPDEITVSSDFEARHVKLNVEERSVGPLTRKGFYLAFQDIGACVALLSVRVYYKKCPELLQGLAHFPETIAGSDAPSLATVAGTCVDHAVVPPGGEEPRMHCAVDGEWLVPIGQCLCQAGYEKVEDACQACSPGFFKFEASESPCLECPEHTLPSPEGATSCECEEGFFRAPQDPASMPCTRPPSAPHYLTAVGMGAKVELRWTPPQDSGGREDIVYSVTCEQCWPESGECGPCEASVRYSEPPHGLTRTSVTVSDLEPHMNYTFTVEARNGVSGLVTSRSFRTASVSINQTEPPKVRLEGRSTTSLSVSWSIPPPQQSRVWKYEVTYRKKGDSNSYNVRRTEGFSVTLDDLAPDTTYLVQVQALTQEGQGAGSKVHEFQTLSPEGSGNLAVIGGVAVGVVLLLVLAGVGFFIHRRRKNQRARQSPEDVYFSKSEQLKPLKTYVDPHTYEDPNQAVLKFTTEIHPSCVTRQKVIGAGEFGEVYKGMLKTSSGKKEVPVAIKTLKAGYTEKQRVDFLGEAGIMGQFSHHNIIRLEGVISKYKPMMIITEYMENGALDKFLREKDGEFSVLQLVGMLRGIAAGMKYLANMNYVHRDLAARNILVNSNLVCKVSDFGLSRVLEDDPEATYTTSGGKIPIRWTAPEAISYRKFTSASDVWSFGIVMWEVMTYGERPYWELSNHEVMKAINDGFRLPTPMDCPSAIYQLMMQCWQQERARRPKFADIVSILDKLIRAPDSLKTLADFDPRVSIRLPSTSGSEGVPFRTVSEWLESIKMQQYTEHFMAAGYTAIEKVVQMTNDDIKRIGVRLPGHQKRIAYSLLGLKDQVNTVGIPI

[2] = target: BSA (bovine serum albumin, control) (bovine, UniProt P02769 25-607); assay: phage ELISA on coated BSA, anti-M13-HRP
Chain of BSA (bovine serum albumin, control) (P02769 25-607 limits assumed): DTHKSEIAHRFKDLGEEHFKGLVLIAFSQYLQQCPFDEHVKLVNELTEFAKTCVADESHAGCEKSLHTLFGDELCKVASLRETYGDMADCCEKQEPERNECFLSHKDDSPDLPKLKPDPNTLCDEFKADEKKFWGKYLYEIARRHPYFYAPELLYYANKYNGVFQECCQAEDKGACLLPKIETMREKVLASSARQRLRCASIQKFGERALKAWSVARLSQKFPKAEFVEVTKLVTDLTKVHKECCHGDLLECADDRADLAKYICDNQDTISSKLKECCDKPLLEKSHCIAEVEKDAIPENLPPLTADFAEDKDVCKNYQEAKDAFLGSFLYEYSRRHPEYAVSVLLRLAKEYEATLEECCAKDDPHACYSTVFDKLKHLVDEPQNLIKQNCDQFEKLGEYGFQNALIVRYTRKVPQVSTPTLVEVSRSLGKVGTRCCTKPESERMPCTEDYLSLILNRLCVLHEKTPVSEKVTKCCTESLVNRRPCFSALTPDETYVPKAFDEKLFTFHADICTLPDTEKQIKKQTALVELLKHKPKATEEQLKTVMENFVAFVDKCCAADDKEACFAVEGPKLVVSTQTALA

[3] = target: T3, human EphA2 recombinant protein (purified human EphA2 extracellular domain) (human, UniProt P29317 24-537); assay: phage ELISA on coated hEphA2, anti-M13-HRP, developed 30 min
T3 construct: extracellular domain; Biotinylated for the Octet assay; also called hEphA2; huEphA2
T3 sequence (P29317 24-537): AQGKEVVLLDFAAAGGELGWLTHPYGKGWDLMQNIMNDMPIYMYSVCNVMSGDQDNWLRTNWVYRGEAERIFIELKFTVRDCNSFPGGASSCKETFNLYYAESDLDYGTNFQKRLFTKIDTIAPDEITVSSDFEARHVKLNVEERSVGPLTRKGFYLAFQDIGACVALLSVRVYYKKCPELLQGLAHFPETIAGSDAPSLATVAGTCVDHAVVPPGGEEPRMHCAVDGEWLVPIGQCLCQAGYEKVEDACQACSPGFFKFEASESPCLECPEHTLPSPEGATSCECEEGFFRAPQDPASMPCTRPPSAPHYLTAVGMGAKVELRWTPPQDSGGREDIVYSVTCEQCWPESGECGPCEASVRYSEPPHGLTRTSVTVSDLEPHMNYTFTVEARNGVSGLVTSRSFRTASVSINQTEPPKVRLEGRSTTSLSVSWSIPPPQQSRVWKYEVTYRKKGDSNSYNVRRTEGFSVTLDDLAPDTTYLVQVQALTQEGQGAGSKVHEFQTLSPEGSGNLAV

[4] = target: T4, mouse EphA2 recombinant protein (Fc chimera, R&D Systems, cat#639-A2) (mouse, UniProt Q03145 26-535); assay: SPR, Biacore 3000, on mEphA2
T4 construct: Biotinylated for the Octet assay; also called mEphA2-Fc; mEphA2; Fc part of the bought chimera not given
T4 sequence (Q03145 26-535, change not shown): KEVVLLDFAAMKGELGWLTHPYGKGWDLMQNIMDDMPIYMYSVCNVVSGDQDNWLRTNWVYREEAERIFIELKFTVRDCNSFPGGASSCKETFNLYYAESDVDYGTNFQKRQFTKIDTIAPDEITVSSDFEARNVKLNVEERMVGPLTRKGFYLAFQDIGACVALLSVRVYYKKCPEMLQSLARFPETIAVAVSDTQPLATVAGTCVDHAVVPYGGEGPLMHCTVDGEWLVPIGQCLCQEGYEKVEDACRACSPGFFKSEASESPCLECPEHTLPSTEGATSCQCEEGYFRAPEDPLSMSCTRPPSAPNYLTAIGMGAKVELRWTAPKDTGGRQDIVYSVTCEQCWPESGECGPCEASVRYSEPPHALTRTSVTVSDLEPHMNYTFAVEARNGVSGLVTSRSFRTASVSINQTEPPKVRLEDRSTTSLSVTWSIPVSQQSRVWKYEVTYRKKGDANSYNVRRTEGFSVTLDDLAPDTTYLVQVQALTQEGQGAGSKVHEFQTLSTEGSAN

[5] = target: T4, mouse EphA2 recombinant protein (Fc …); assay: BLI, Octet Red, biotinylated mEphA2 on streptavidin sensors, steady state fit (column head prints EC50, title KD)
[6] = target: T4, mouse EphA2 recombinant protein (Fc …); assay: end-point titration ELISA on mEphA2
[7] = target: T2, human EphA2 receptor expressed on cells …; assay: FACS on CHO cells transfected with human EphA2
[8] = target: T3, human EphA2 recombinant protein …; assay: BLI, Octet Red, biotinylated huEphA2 on streptavidin sensors, steady state fit (column head prints EC50, title KD)
[9] = target: T3, human EphA2 recombinant protein …; assay: end-point titration ELISA on huEphA2
[10] = target: T3, human EphA2 recombinant protein …; assay: SPR, Biacore 3000, immobilized huEphA2 extracellular domain, KDequilibrium
[11] = target: T3, human EphA2 recombinant protein …; assay: SPR, Biacore 3000, immobilized huEphA2 extracellular domain
[12] = target: T3, human EphA2 recombinant protein …; assay: SPR, Biacore 3000, immobilized huEphA2 extracellular domain, KDkinetic
[13] = target: T2, human EphA2 receptor expressed on cells …; assay: immunofluorescence on PC-3 cells expressing endogenous EphA2 receptor, 4° C. for 30 minutes
[14] = target: T2, human EphA2 receptor expressed on cells …; assay: FACS titration on human EphA2 transfected CHO cells, anti-His-FITC detection [upper panel]

Row | Binder | Kd [4] | koff [4] | kon [4] | Kd [5] | EC50 [6] | EC50 [7] | Kd [8] | EC50 [9] | binding result [13] | further results
1 | B1 | 97 nM | 0.008 s⁻¹ | 79100 M⁻¹ s⁻¹ |  |  |  |  |  |  | Kd (FcRn): 3260 nM; binding result [1]: binds; binding result [2]: no binding; binding result [3]: binds
2 | B2 |  |  |  | 18 nM | 1.97 nM | 1310 nM | 20 nM | 2.55 nM |  | 
3 | B3 | 383 nM | 0.014 s⁻¹ | 36400 M⁻¹ s⁻¹ |  |  |  |  |  |  | 
4 | B4 |  |  |  | 21 nM | 3.18 nM | 333 nM | 18 nM | 8.06 nM |  | Kd [10]: 22 nM; koff [11]: 0.0375 s⁻¹; kon [11]: 1.8e+06 M⁻¹ s⁻¹; Kd [12]: 21 nM
5 | B5 |  |  |  | 5.5 nM | 9.89 nM | 403 nM | 3.1 nM | 4.43 nM |  | Kd [10]: 13.9 nM; koff [11]: 0.0158 s⁻¹; kon [11]: 1.21e+06 M⁻¹ s⁻¹; Kd [12]: 13 nM
6 | B6 | 873 nM | 0.008 s⁻¹ | 9610 M⁻¹ s⁻¹ |  |  |  |  |  |  | binding result [1]: binds; binding result [2]: no binding; binding result [3]: binds
7 | B7 |  |  |  |  |  |  |  |  | binds | 
8 | B8 |  |  |  |  |  |  |  |  | binds | 
9 | B9 |  |  |  |  |  |  |  |  | binds | 
10 | B10 |  |  |  |  |  |  |  |  |  | Kd (FcRn): 1660 nM; binding result [14]: no binding (tested: about 3.6 µM)
